{"source": "patent US10253089B2", "about": "“Matrix metalloproteinase cleavable protein polymers for cancer gene therapy” (The University of Utah Research Foundation, priority 2012, dated 2019)", "key": {"[1]": {"assay": "Dynamic mechanical analysis (DMA) of SELP hydrogels", "format": "physicochemical", "settings": "12 wt % hydrogels", "text": "It was predicted that polymer structure would also play a large role in the mechanical properties of the hydrogels. Dynamic mechanical analysis (DMA) was used to examine hydrogels made from each of the SELP analogues, and as predicted, there was a strong dependence of the results on the silk and elastin content of the polymers, and the arrangement of the silk and elastin blocks. […] This is opposite the order observed in the swelling studies, which is to be expected assuming the crosslinking density decreases with increasing swelling and decreasing mechanical properties for analogous materials. The legend for the graph shown in FIG. 8 is as follows: triangles: SELP-47K, squares: SELP-815K, diamonds: SELP-415K. Highly controlled structure in SELPs allows fine-tuning of mechanical properties.\nTo gain further insight into the hydrogel pore structure, network properties were examined as a function of polymer sequence by small angle neutron scattering (SANS) techniques (FIG. 9). SANS allows the examination of microstructures in the range 1-100 nm through the analysis of elastic neutron scattering. […] The calculated correlation length (Table 3) depicts a trend in the observation that are in the order SELP-415K>SELP-815K>SELP-47K. […]"}, "[2]": {"assay": "Small angle neutron scattering (SANS) of SELP hydrogels", "format": "physicochemical", "settings": "12 wt %", "text": "To gain further insight into the hydrogel pore structure, network properties were examined as a function of polymer sequence by small angle neutron scattering (SANS) techniques (FIG. 9). SANS allows the examination of microstructures in the range 1-100 nm through the analysis of elastic neutron scattering. SANS analysis was used to examine the correlation between the observed macroscopic properties of SELPs (12% wt), such as equilibrium swelling and mechanical modulus, with the underlying network structure. […] SELP hydrogels conformed closely with a modified gel model of the general form I(Q)=AQ^b+(BQ^2ε^2)^2+C, which uses a power-law fit for the high q scattering combined with the Debye-Bueche model at low to intermediate Q (above Q=0.02 Å^−1). The combined Debye-Bueche/power law model provided a nearly complete fit over the full q-range of collected data. […] The calculated correlation length (Table 3) depicts a trend in the observation that are in the order SELP-415K>SELP-815K>SELP-47K. […] The silk blocks of SELP-415K are separated by elastin blocks twice the length as −47K, and as these cross-linking blocks move further apart, the elastin-like nature of the SELP becomes more pronounced and the storage modulus decreases. SELP-815K presents an interesting case where the silk blocks are doubled in length over SELP-47K while also having a long elastin block as in SELP415K."}, "[3]": {"assay": "One week acute toxicity study (weight, CBC)", "format": "in vivo, CD-1 immunocompetent mice", "protocol": "Mice were anesthetized and maintained under anesthesia with 3% isofluorane in oxygen. After shaving and cleaning the injection site with 60% isopropanol, mice were subcutaneously injected in the right flank with 50 μl of solution using a 250 μl Hamilton syringe with a 26G needle. […] The injection site was gently clamped for 10 seconds to prevent leakage, after which mice were returned to their cages. For consistency, the day of viral injection was defined as day 0.\nFor treatment groups, a suspension of 1 mg GCV (Sigma Aldrich, St. Louis, Mo.) per ml of 0.9% physiological saline was prepared and sterilized through a 0.22 μm filter. Each day, animal weights were recorded, injection sites cleaned with 60% isopropanol, and mice injected i.p. with 1 mg/ml GCV suspension through a 26G needle sufficient for a total dose of 25 mg/kg body weight. Average dosing volume for these studies was approximately 0.6 ml. Mice were injected daily for the first four weeks of the 12 week recovery study, and for the entirety of the 1, 2, and 4 week studies.\nUpon completion of each study, mice were individually euthanized using 70% CO2 in oxygen, with euthanasia confirmed by lack of breathing for 10 seconds. […] Injection sites were dissected for visual observation of local inflammation. Complete blood counts (CBCs) were performed within 2 hours of blood sample collection using a CBC-DIFF (Heska, Loveland, Colo.) blood count analyzer. Following CBC, samples were centrifuged at 10,000 rpm for 2.5 minutes and rapidly frozen at −80° C. for future analysis.\nSafety studies were conducted in immunocompetent mice. In order to examine the ability of SELP to reduce the acute toxicity of the HSV-Tk/GCV system, 4-6 week old female CD-1 immunocompetent mice were injected subcutaneously with the conditions listed in Table 5. Weight was monitored daily for one week and daily injections of 25 mg/kg, intraperitoneal GCV were given to some groups as indicated in Table 5.\nAt the conclusion of the one week study, mice were sacrificed, and blood and organs were collected for analysis. […] These assessments were performed using a complete blood count."}, "[4]": {"molecular_target": "MMP-9 (Homo sapiens, UniProt P14780)", "sequence (P14780 94-707)": "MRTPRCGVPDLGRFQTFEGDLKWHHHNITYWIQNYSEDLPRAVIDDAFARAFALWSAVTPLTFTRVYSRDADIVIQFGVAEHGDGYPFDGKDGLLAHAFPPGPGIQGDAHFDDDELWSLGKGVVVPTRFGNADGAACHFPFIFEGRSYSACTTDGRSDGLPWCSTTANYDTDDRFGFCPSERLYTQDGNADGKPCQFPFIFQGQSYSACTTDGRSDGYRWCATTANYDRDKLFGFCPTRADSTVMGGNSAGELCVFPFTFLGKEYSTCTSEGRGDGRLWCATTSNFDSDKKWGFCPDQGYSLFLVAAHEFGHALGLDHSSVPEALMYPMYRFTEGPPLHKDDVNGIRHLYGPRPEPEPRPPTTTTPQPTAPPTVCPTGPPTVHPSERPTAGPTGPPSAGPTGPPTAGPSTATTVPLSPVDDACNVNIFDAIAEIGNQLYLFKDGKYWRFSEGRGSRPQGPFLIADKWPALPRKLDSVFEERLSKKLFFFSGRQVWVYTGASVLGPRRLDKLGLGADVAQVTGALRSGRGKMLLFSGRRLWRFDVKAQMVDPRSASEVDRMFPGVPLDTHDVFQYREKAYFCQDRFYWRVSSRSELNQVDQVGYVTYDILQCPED", "assay": "Enzymatic digest of polymer by MMP-9, SDS-PAGE", "format": "biochemical", "settings": "1 mg/ml polymer, 10 nM and 40 nM MMP-9, 2-48 hours, room temperature", "protocol": "This buffer recipe is sourced from the Molecular Probes EnzChek Gelatinase/Collagenase Assay Kit (Invitrogen, Carlsbad, Calif.), which was used to confirm the activity of MMP-2 and MMP-9 prior to use. 2× Laemmli Buffer was supplemented with 5% β-mercaptoethanol and added 1:1 by volume to the polymer solutions, which were then placed in a PCR thermal cycler and heated to 95° C. for five minutes to denature the protein. 25 μl of each sample was added to 4-15% Bis-Tris precast PAGE gel and electrophoresis was performed at 200V until the dye front reached the bottom of the gel, approximately 30 minutes. Kaleidoscope protein standard was used as a molecular weight marker. Following electrophoresis, gels were stained with GelCode Blue (colloidal Coomassie formulation) following manufacturer's instructions for staining and destaining.\n100 μl samples of each polymer were digested with a final concentration of 10 nM and 40 nM MMP-2 or MMP-9. MMP samples were incubated at room temperature for 2, 4, 12, 24, 36, and 48 hours and samples were run on PAGE gels and stained with GelCode Blue to visualize band patterns corresponding to protein degradation.\nAdditionally, this digestion is dependent on both time of exposure and concentration of MMP."}}}
{"molecule": "SELP815K: silk-elastin-like protein polymer, longer silk units, fifteen elastin units, lysine elastin unit; monomer repeated 6 times (SEQ ID NO. 21) (protein, monomer repeated 6 times; Hybrid of Homo sapein and Bombyx mori) MDPVVLQRRDWENPGVTQLNRLAAHPPFASDPMGAGSGAGAGSGAGAGSGVGVPGVGVPGVGVPGVGVPGKGVPGVGVPGVGVPGVGVPGVGVPGVGVPGVGVPGVGVPGVGVPGVGVPGVGVPGVGVPGAGAGSGAGAGSGAGAGSGAGAGSGAGAGSGAGAGAGSGAGAGSGAGAGSGVGVPGVGVPGVGVPGVGVPGKGVPGVGVPGVGVPGVGVPGVGVPGVGVPGVGVPGVGVPGVGVPGVGVPGVGVPGVGVPGAGAGSGAGAGSGAGAGSGAGAGSGAGAGSGAGAGAGSGAGAGSGAGAGSGVGVPGVGVPGVGVPGVGVPGKGVPGVGVPGVGVPGVGVPGVGVPGVGVPGVGVPGVGVPGVGVPGVGVPGVGVPGVGVPGAGAGSGAGAGSGAGAGSGAGAGSGAGAGSGAGAGAGSGAGAGSGAGAGSGVGVPGVGVPGVGVPGVGVPGKGVPGVGVPGVGVPGVGVPGVGVPGVGVPGVGVPGVGVPGVGVPGVGVPGVGVPGVGVPGAGAGSGAGAGSGAGAGSGAGAGSGAGAGSGAGAGAGSGAGAGSGAGAGSGVGVPGVGVPGVGVPGVGVPGKGVPGVGVPGVGVPGVGVPGVGVPGVGVPGVGVPGVGVPGVGVPGVGVPGVGVPGVGVPGAGAGSGAGAGSGAGAGSGAGAGSGAGAGSGAGAGAGSGAGAGSGAGAGSGVGVPGVGVPGVGVPGVGVPGKGVPGVGVPGVGVPGVGVPGVGVPGVGVPGVGVPGVGVPGVGVPGVGVPGVGVPGVGVPGAGAGSGAGAGSGAGAGSGAGAGSGAGAGSGAGAMDPGRYQDLRSHHHHHH", "values": [{"measurement": "storage modulus", "setting": "[1]", "value": "falls between those of SELP47K and 415K"}, {"measurement": "Debye-Bueche mid-Q slope", "setting": "[2]", "value": "~−3"}, {"measurement": "Power-law low Q slope", "setting": "[2]", "value": 3.26}, {"measurement": "GRA", "setting": "[3]", "value": "1.125 ± 0.39"}, {"measurement": "LYM", "setting": "[3]", "value": "4.475 ± 0.87"}, {"measurement": "MON", "setting": "[3]", "value": "0.7 ± 0.27"}, {"measurement": "WBC", "setting": "[3]", "value": "6.3 ± 0.79"}, {"measurement": "digestion by MMP-9", "setting": "[4]", "value": "is not"}]}
